Results published in US11230579B2, “Method of treating BCL-2 over-expressing disorders using arts containing a BH3-like domain” (CARMEL-HAIFA UNIVERSITY ECONOMIC CORPORATION LTD., priority 2012, dated 2022).
Entries after “also recorded” stand apart in the source; their conditions may differ. Each block holds one molecule with its values, some of them ahead of it.

Tests used:
HeLa cells = assay: Immunofluorescence localization of Bcl-2 (mitochondria vs cytosol) after STS; assay type: cell-based, human
Experimental: To further determine the cellular localization of Bcl-2 under apoptotic and non-apoptotic conditions, Immunofluorescence assay was conducted.
Cells in which Bcl-2 is detected at mitochondria (co-localize with MitoTracker), or at the cytosol (showing diffused pattern of staining) were counted.

Bcl-2 [1] = assay: In vivo ubiquitination assay of Bcl-2 in MEFs; assay type: cell-based, mouse; conditions: WT MEFs, transfected, MG132 for 6 h
Experimental: (§1) Cells were transiently transfected with different constructs as detailed herein and treated with MG132 (20 μM, Alexis) for 6 hours. The medium was aspirated and the cells were washed with 1×PBS at room temperature. The cells were scraped at room temperature in 100 μl of denaturation buffer (1% SDS, 140 mM NaCl, 50 mM Tris-HCl pH 7.4) containing protease inhibitor cocktail (Complete, Roche) and 10 mM NEM to preserve ubiquitine chains. The solution was transferred to 2 ml eppendorf tube. The cells were homogenized by passing through a 25-gauge needle (20 times), and boiled for 10 min after vigorous vortexing. An amount of 400 μl of renaturation buffer (2% TritonX-100, 140 mM NaCl, 50 mM Tris-HCl pH 7.4) containing protease inhibitor cocktail (Complete, Roche) and 10 mM NEM was added to the lysate. After 15 min of centrifugation (10,000 g, 4°), the supernatant was transferred into a clean eppendorf tube. The protein concentration was determined using BCA Protein Assay Kit (Pierce). Western blot analyses were performed following immunoprecipitation with particular antibody.
The possible in vivo ubiquitination of Bcl-2 occurring upon apoptotic induction was next tested in immortalized WT MEFs transiently transfected with Bcl-2, XIAP and ubiquitin and treated with 20 μM MG132 for 6 h. […]

Bcl-2 [2] = assay: In vivo ubiquitination assay of Bcl-2 in HeLa cells; assay type: cell-based, human; conditions: HeLa cells transfected with Bcl-2, XIAP and ubiquitin, 20 μM MG132 6 h
Experimental: as §1
More specifically, HeLa or ARTS KD HeLa cells were transiently transfected with Bcl-2, XIAP and ubiquitin and treated with 20 μM MG132 for 6 h. […] The cells were harvested and subjected to immunoprecipitation (IP) using anti-Bcl-2 antibodies, followed by immune-blotting (IB) with anti-Bcl-2 antibodies.

BT-549 and HeLa cells = assay: Cell fractionation: release of Bcl-2 and ARTS to the cytosol after STS; assay type: cell-based, human; conditions: 0.6 μM STS
Experimental: Cells were re-suspended in homogenization buffer [20 mM HEPES-KOH, pH 7.5, 10 mM KCl, 1.5 mM MgCl2, 1 mM sodium EDTA, 1 mM sodium EGTA and 1 mM DTT in the presence of 250 mM sucrose and protease inhibitors (Mini-Complete™, Roche)]. Cell homogenization was performed using a 26 G needle (Sterican® 0.45′25 mm, 26 G′1″, Gr.18, B. Braun #46507683) and 1 mL syringe (1 mL HSW NORMJECT®, Henke-Sass, Wolf GmbH #4010.200V0) using 20 strokes. Homogenates were centrifuged at 500×g for 5 min at 4° C., and the supernatant was centrifuged at 10000×g for 20 min to obtain mitochondria. The supernatant was considered as a cytosolic fraction.
Briefly, cells were harvested and centrifuged at 300×g for 10 min, washed in TBS 2.5 mM pH 7.5, and re-pelletted. Cells were permeabilized for 5 min on ice with cytosolic extraction buffer (250 mM sucrose, 70 mM KCl, 137 mM NaCl, 4.3 mM Na2HPO4, 1.4 mM KH2PO4 pH 7.2, 1× complete protease inhibitor cocktail, Roche) containing freshly prepared digitonin (200 μg/ml, D-5628, Sigma). Cytosolic fraction was isolated by collecting the supernatant after centrifugation at 1000×g for 5 min at 4° C. Cytosolic fraction was separated on a 12% acrylamide gel and transferred to nitrocellulose membranes.
It has been recently shown by some of the inventors that similarly to Bcl-2, ARTS resides at the MOM of living cells (Edison et al., 2012b). […]

Bcl-2 [3] = system: Bcl-2
Bcl-2 [4] = assay: IP with anti ARTS antibody in HeLa wt cells, Bcl-2; assay type: binding, human
Experimental: (§2) Co immunoprecipitation was performed as previously described (Gottfried et al., 2004). Briefly, 10 μg of anti-ARTS antibody or 2 μg of anti-Bcl-2 or anti-XIAP antibody were added to the protein lysate and the samples were left rotating overnight at 4° C. On the following day, agarose beads conjugated to protein A/G (Santa Cruz) were added for 4 h. Samples were centrifuged at 4000 rpm, 4° C. for 5 min and washed three times with PBS. Proteins were eluted from beads following 5 min of boiling in sample buffer and separated on 12.5% SDS-PAGE gel, followed by Western blot analysis.
(§3) Further, HeLa wt cells were treated with ABT-263 25 μM for 24 h. 750 μg of total proteins were subjected to Immunoprecipitation (IP) assay using monoclonal mouse anti ARTS Antibody (Ab). Western Blot analysis was performed using Bcl-2, Bcl-xL, ARTS and Actin antibodies. […] This binding is still seen after 24 hours of treatment with ABT-263. The decrease in binding may be the result of lower levels of Bcl-2 and Bcl-xL known to be strongly degraded after 24 hours of apoptosis.

Bcl-2 [5] = assay: Functional-structural pull-down assay with anti Bcl2 antibody in transfected HeLa cells; assay type: binding, human; conditions: pull-down with Bcl-2 antibodies
Experimental: HeLa cells were transiently transfected with Full length ARTS plasmid and 128 amino acids N′ terminus deletion of ARTS plasmid, for 24 hrs. The cells were extracted using RIPA-SDS lysis buffer. Immunoprecipitation was done by incubation of lysates overnight with anti Bcl2 antibody (BD), followed by precipitation done with protein A/G beads (Santa Cruz). Western blot analysis was performed using monoclonal anti ARTS antibody directed against its unique C terminus (Sigma).
In order to identify the Bcl-2 binding domain in ARTS, the inventors examined whether deletion of different fragments of ARTS, namely, the N-terminal 128 amino-acid residues may have an effect. Therefore, pull-down experiments were performed in HeLa cells transfected with either the full length ARTS or a deletion mutant thereof.

Bcl-2 [6] = assay: Over-expression of ARTS in COS-7 cells, Bcl-2 levels by Western blot and densitometry; assay type: cell-based; conditions: COS-7 cells, transient transfection
From the text: For transient transfections jetPEI™ (Polyplus Transfection) and Transfectol (GeneChoice) reagents were used according to the manufacturers' instructions.
To determine whether ARTS promotes apoptosis by regulating the levels of Bcl-2, the inventors first over-expressed ARTS in COS-7 cells. More specifically, COS-7 cell were transiently transfected with ARTS, Bcl-2 or empty vector or co-transfected with both constructs.

Bcl-2 [7] = assay: Myc beads pull-down of ARTS and Bcl-2 in co-transfected COS-7 cells; assay type: binding; conditions: COS-7 cells co-transfected with Bcl-2 and ARTS
Experimental: (§4) COS-7 cells were co-transfected with different constructs as detailed herein. The cells were lysed in RIPA buffer (150 mM NaCl, 50 mM Tris-HCl (pH 8), 1% NP-40, 0.5% deoxycholate acid containing protease inhibitors (mini Complete, Roche)). The samples were left rotating overnight at 4° C. with the anti-Myc-beads (Santa Cruz). Samples were centrifuged at 4000 rpm, 4° C. for 5 min and washed four times in PBS. Proteins were eluted from beads following 5 min of boiling in sample buffer. Proteins were separate on 12.5% SDS-PAGE gel, followed by Western blot analysis.
The mechanism by which ARTS regulates Bcl-2 levels was further tested using a pull-down assay in COS-7 cells which were co-transfected with Bcl-2 and ARTS expression vectors. Pull-down assays were performed using agarose anti-myc beads followed by Western blot analysis using mouse anti-ARTS and anti-Bcl-2 antibodies.

XIAP and Bcl-2 = biological target: T1, XIAP and Bcl-2 (Homo sapiens, UniProt P10415+P98170); assay: Pull-down of myc-XIAP in COS-7 cells co-transfected with ARTS, flag-Bcl-2 and myc-XIAP; assay type: binding
T1 construct: expressed in transfected cells; host or cells: COS-7
Experimental: as §4
Further understanding and evaluation of the relative contribution of ARTS to the formation of a complex with Bcl-2 and XIAP was obtained by over-expressing ARTS, Bcl-2, and XIAP alone or all together in COS-7 cells, which contain relatively small amounts of endogenous ARTS.
FIGS. 5A and 5B show results of COS-7 cells (pull down and lysates) transiently co-transfected with combinations of ARTS, flag-Bcl-2, and myc-XIAP constructs. Pull-down of XIAP was performed using anti-myc beads, and the precipitate was subjected to western blot analyses. […] This weak binding was attributed to the presence of low endogenous levels of ARTS in these COS-7 cells resulting in almost no formation of the complex.

Bcl-2 [8] = assay: Bimolecular Fluorescence Complementation (BiFC) with flow cytometry, ARTS and Bcl-2; assay type: binding, human; conditions: living cells, 30 minutes after apoptotic induction, data not shown
From the text: (§5) The Bimolecular Fluorescence Complementation (BiFC) assay, provides a simple and direct way to visualize protein-protein interactions in real-time and in living cells. The method is based on formation of a fluorescent complex through the association of two fragments of a fluorescent protein, brought together by an interaction between proteins fused to the fragments. This method is especially attractive because the Green fluorescent protein (GFP) or Yellow fluorescent protein (YFP) chromophore forms spontaneously on protein folding in virtually every cell type tested (Kerppola, 2006).
(§6) Direct binding between [ARTS and Bcl-2] and [XIAP and Bcl-2] was examined using the BiFC system. […]
(§7) Transfection was performed using 200 ng of each plasmid together with 50 ng of pdsRED plasmid which served as control for transfection efficiency. […] Flow cytometry analyses of cell suspensions were performed using a fluorescence-activated cell sorter (FACSCantoII; BD Biosciences) equipped with an argon laser emitting at 488 nm. […] Results were analyzed using […] software (BD Biosciences). A ratio between YFP fluorescence and Red fluorescence was calculated for each time point.
(§8) To further investigate the binding relationships within this complex, the split-Venus, Bimolecular Fluorescence Complementation (BiFC) system was used. […]

Bcl-2 and XIAP = assay: Immunoprecipitation with anti-ARTS monoclonal antibody in HeLa, BT-549 and COS-7 cells; assay type: binding; conditions: BT-549 and 6-Myc-ARTS transfected COS-7 cells
Experimental: as §2

XIAP [9] = biological target: T2, XIAP (Homo sapiens, UniProt P98170); conditions: in vitro and in vivo; cited from earlier work
Bcl-XL = Bcl-XL (Homo sapiens, UniProt Q07817); assay: IP with anti ARTS antibody in HeLa wt cells, Bcl-xL; assay type: binding; parameters: endogenous in cells; host or cells: HeLa wt cells
Experimental: as §2, §3

XIAP [10] = biological target: T2, XIAP; assay: Bimolecular Fluorescence Complementation (BiFC) with flow cytometry, ARTS and XIAP; assay type: binding; parameters: expressed in transfected cells; host or cells: HeLa; conditions: living cells, 30 minutes after apoptotic induction, data not shown
From the text: as §5, §6, §7, §8

T2 sequence (P98170 whole entry): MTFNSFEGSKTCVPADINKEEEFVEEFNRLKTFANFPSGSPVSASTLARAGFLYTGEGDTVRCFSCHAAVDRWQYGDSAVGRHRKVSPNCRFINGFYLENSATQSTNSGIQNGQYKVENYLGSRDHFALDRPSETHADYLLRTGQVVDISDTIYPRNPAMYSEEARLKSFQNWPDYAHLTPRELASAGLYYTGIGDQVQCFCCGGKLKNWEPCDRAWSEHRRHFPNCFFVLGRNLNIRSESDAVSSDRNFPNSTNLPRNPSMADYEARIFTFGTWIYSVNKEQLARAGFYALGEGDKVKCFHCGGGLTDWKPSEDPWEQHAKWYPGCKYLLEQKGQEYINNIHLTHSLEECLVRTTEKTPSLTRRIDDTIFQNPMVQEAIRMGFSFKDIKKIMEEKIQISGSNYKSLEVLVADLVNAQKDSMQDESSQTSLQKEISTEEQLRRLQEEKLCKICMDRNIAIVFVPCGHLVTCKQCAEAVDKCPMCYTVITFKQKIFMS
T1 sequence (P98170 whole entry): as above
T1 sequence (P10415 whole entry): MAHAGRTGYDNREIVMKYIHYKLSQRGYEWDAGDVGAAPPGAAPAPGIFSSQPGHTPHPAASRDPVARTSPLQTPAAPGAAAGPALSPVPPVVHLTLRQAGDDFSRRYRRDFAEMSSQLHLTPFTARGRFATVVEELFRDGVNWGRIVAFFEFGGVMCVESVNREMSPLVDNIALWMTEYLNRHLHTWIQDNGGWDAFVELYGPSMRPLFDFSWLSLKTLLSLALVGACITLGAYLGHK
Chain of Bcl-XL (Q07817 whole entry): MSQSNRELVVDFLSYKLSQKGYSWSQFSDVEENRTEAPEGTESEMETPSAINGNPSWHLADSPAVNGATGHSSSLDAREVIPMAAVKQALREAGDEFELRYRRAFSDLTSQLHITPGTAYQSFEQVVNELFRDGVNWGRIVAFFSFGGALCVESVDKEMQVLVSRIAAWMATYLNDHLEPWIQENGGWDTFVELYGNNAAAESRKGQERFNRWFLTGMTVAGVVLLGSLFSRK

Molecule: CN[C@@H]1C[C@H]2O[C@@](C)([C@@H]1OC)n1c3ccccc3c3c4c(c5c6ccccc6n2c5c31)C(=O)NC4 [STS, staurosporine]
cells exhibiting Bcl-2 in the cytosol (HeLa cells; HeLa cells transfected with Bcl-2, 180 minutes of STS treatment): 94%
cells exhibiting Bcl-2 in their cytosol (HeLa cells; HeLa cells transfected with Bcl-2, sixty minutes following STS treatment): 63%
polyubiquitinated forms of Bcl-2 following apoptotic induction (Bcl-2 [1]): accumulation of polyubiquitinated forms of Bcl-2; also recorded: accumulation of poly-ubiquitinated forms of Bcl-2; also recorded: poly-ubiquitinated forms of Bcl-2 detected
time of appearance of Bcl-2 polyubiquitinated forms (Bcl-2 [1]): ≤ 30 min
time at which poly-ubiquitinated forms of Bcl-2 are seen (Bcl-2 [2]; 1.5 μM STS): ≤ 30 min
poly-ubiquitinated forms of Bcl-2 after induction of apoptosis (Bcl-2 [2]; 1.5 μM STS 0.5 h): significant accumulation of poly-ubiquitinated forms of Bcl-2
time at which Bcl-2 and ARTS are found in the cytosol after apoptosis induction (BT-549 and HeLa cells): 2 to 15 min
Bcl-2 levels (Bcl-2 [3]; HeLa cells, 60 and 180 minutes treatments with STS): decrease in Bcl-2 levels
Bcl-2 levels upon induction of apoptosis (Bcl-2 [3]; different cell lines and mouse embryonic fibroblasts (MEFs), Western blot): down regulated

ability of XIAP to bind to Bcl-2 on over-expression of ARTS (XIAP and Bcl-2): significantly increased
binding to Bcl-2 (BiFC fluorescence) (Bcl-2 [8]): Strong binding
binding to Bcl-xL in living cells (Bcl-XL): binds
binding to XIAP (BiFC fluorescence) (XIAP [10]): Strong binding
B1: ARTS: septin-like mitochondrial protein; human ARTS of 274 amino acid residues, GenBank Accession No. AF176379 (protein, listed as Homo sapiens)
chain: MIKRFLEDTTDDGELSKFVKDFSGNASCHPPEAKTWASRPQVPEPRPQAPDLYDDDLEFRPPSRPQSSDNQQYFCAPAPLSPSARPRSPWGKLDPYDSSEDDKEYVGFATLPNQVHRKSVKKGFDFTLMVAGESGLGKSTLVNSLFLTDLYRDRKLLGAEERIMQTVEITKHAVDIEEKGVRLRLTIVDTPGFGDAVNNTECWKPVAEYIDQQFEQYFRDESGLNRKNIQDNRVHCCLYFISPFGHGYGPSLRLLAPPGAVKGTGQEHQGQGCH
binding to Bcl-2 in living cells (Bcl-2 [4]): binds
binding to Bcl-2 (Bcl-2 [5]): binds to Bcl-2
Bcl-2 levels on over expression (Bcl-2 [6]): reduction in Bcl-2 levels
complex with Bcl-2 (Bcl-2 [7]): forms a complex with Bcl-2
complex of ARTS, Bcl-2 and XIAP (Bcl-2 and XIAP): form a complex
binding to XIAP (XIAP [9]): binds directly to XIAP
